# Results as given in patent publication US20110212853.
# Assays:
# [1] = system: recombinant human MCP-1 N1pE (human MCP-1 with an N-terminal pyroglutamate)
# [2] = system: recombinant human MCP-1(1-76) starting with an N-terminal glutamine
substance,measurement,setting,value
recombinant human Aminopeptidase P (R&D Systems),"N-terminal cleavage, Maldi-TOF mass spectrometry",[1],"conferring resistance against N-terminal degradation by post-proline cleaving enzymes, e.g. DP4 and aminopeptidase P"
same,"N-terminal cleavage, Maldi-TOF mass spectrometry",[2],cleavage of human MCP-1(1-76) bearing an N-terminal glutaminyl residue by recombinant human Aminopeptidase P
